Source: IntAct's records for PubMed 19474792

B1: DYRK-family kinase pom1 (Schizosaccharomyces pombe (strain ATCC 38366 / 972)), Q09690 (parent)
chain: MGYLQSQKAVSLGDENTDALFKLHTSNRKSANMFGIKSELLNPSELSAVGSYSNDICPNRQSSSSTAADTSPSTNASNTNISFPEQEHKDELFMNVEPKGVGSSMDNHAITIHHSTGNGLLRSSFDHDYRQKNSPRNSIHRLSNISIGNNPIDFESSQQNNPSSLNTSSHHRTSSISNSKSFGTSLSYYNRSSKPSDWNQQNNGGHLSGVISITQDVSSVPLQSSVFSSGNHAYHASMAPKRSGSWRHTNFHSTSHPRAASIGNKSGIPPVPTIPPNIGHSTDHQHPKANISGSLTKSSSESKNLSTIQSPLKTSNSFFKELSPHSQITLSNVKNNHSHVGSQTKSHSFATPSVFDNNKPVSSDNHNNTTTSSQVHPDSRNPDPKAAPKAVSQKTNVDGHRNHEAKHGNTVQNESKSQKSSNKEGRSSRGGFFSRLSFSRSSSRMKKGSKAKHEDAPDVPAIPHAYIADSSTKSSYRNGKKTPTRTKSRMQQFINWFKPSKERSSNGNSDSASPPPVPRLSITRSQVSREPEKPEEIPSVPPLPSNFKDKGHVPQQRSVSYTPKRSSDTSESLQPSLSFASSNVLSEPFDRKVADLAMKAINSKRINKLLDDAKVMQSLLDRACIITPVRNTEVQLINTAPLTEYEQDEINNYDNIYFTGLRNVDKRRSADENTSSNFGFDDERGDYKVVLGDHIAYRYEVVDFLGKGSFGQVLRCIDYETGKLVALKIIRNKKRFHMQALVETKILQKIREWDPLDEYCMVQYTDHFYFRDHLCVATELLGKNLYELIKSNGFKGLPIVVIKSITRQLIQCLTLLNEKHVIHCDLKPENILLCHPFKSQVKVIDFGSSCFEGECVYTYIQSRFYRSPEVILGMGYGTPIDVWSLGCIIAEMYTGFPLFPGENEQEQLACIMEIFGPPDHSLIDKCSRKKVFFDSSGKPRPFVSSKGVSRRPFSKSLHQVLQCKDVSFLSFISDCLKWDPDERMTPQQAAQHDFLTGKQDVRRPNTAPARQKFARPPNIETAPIPRPLPNLPMEYNDHTLPSPKEPSNQASNLVRSSDKFPNLLTNLDYSIISDNGFLRKPVEKSRP
partner: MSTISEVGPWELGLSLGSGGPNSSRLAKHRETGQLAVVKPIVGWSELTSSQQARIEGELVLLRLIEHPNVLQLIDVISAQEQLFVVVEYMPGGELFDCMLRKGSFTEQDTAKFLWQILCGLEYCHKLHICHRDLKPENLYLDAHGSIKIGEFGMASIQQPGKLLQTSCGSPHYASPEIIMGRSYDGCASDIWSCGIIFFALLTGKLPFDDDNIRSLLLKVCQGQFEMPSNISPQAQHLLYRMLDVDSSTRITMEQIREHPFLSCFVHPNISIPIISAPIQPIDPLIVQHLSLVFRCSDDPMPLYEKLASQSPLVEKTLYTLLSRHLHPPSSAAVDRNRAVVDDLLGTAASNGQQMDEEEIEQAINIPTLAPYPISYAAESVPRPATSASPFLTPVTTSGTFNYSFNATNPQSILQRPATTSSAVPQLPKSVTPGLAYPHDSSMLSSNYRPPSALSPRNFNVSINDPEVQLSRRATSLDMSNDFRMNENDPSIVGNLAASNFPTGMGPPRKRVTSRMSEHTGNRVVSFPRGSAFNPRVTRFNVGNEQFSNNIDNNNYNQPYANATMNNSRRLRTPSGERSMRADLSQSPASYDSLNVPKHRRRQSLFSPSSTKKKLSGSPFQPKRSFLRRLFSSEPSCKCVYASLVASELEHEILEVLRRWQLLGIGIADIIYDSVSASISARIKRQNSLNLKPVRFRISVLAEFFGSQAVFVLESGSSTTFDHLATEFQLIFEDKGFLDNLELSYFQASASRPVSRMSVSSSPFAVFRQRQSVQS

Variants of: B1
Settings: with cdr2_schpo cdr2, P87050

| Variant | effect of a mutation on the interaction |
| --- | --- |
| K728R | disrupting interaction |
